Assay results as given in publication PMC8303780, “Mutational Analysis of Redβ Single Strand Annealing Protein: Roles of the 14 Lysine Residues in DNA Binding and Recombination In Vivo”.
Substitutions are numbered along the chain they refer to.

B1: Cy5 50-mer ssDNA (ssDNA)
DNA: CCATCCGCAAAAATCGAGCTATGCAGGGCGATTCTGCTCTAAGCCATCCG
B2: Cy3 50-mer ssDNA (ssDNA)
DNA: GCGGATGGCTTAGAGCAGAATCGCCCTGCATAGCTCGATTTTTGCGGATG

Assays:
Conditions in all cases: protein: recombinant, tags: 6xHis removed by thrombin, residual N-terminal GSH
Redβ K69A = biological target: T1, Redβ K69A (bacteriophage λ, UniProt P03698 1-261, K69A); experiment: EMSA; PBS; enhanced vs WT; Anisotropy: 50 mM Tris-HCl pH 7.5, 1 mM DTT, 0.1 mg/mL BSA, 10 nM FAM48, 23 °C (Kd per monomer); gel assay: 10 µM Redβ, 50 µM nt of each oligo, PBS, 37 °C, 1% agarose at 22 °C
T1 sequence: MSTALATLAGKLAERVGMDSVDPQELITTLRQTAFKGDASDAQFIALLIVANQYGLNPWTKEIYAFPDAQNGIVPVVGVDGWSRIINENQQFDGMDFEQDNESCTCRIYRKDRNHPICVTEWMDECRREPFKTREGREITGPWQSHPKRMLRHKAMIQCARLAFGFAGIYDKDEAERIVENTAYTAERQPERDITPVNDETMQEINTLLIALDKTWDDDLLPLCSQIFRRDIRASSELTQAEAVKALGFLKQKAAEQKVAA

Redβ K172A = biological target: T2, Redβ K172A (bacteriophage λ, UniProt P03698 1-261, K172A); experiment: EMSA; PBS; Anisotropy: 50 mM Tris-HCl pH 7.5, 1 mM DTT, 0.1 mg/mL BSA, 10 nM FAM48, 23 °C (Kd per monomer); gel assay: 10 µM Redβ, 50 µM nt of each oligo, PBS, 37 °C, 1% agarose at 22 °C
T2 sequence: T1 sequence with A69K, K172A

Redβ K61A = biological target: T3, Redβ K61A (bacteriophage λ, UniProt P03698 1-261, K61A); experiment: as above
T3 sequence: T1 sequence with K61A, A69K

Redβ K132A = biological target: T4, Redβ K132A (bacteriophage λ, UniProt P03698 1-261, K132A); experiment: as above
T4 sequence: T1 sequence with A69K, K132A

Redβ K111A = biological target: T5, Redβ K111A (bacteriophage λ, UniProt P03698 1-261, K111A); experiment: as above
T5 sequence: T1 sequence with A69K, K111A

Redβ K154A = biological target: T6, Redβ K154A (bacteriophage λ, UniProt P03698 1-261, K154A); experiment: as above
T6 sequence: T1 sequence with A69K, K154A

Redβ K148A = biological target: T7, Redβ K148A (bacteriophage λ, UniProt P03698 1-261, K148A); experiment: as above
T7 sequence: T1 sequence with A69K, K148A

Binder	binding result (Redβ K69A; label: 5'-Cy5)	binding result (Redβ K172A; label: 5'-Cy5)	binding result (Redβ K61A; label: 5'-Cy5)	binding result (Redβ K132A; label: 5'-Cy5)	binding result (Redβ K111A; label: 5'-Cy5)	binding result (Redβ K154A; label: 5'-Cy5)	binding result (Redβ K148A; label: 5'-Cy5)	binding result (Redβ K69A; label: 5'-Cy3)	binding result (Redβ K172A; label: 5'-Cy3)	binding result (Redβ K61A; label: 5'-Cy3)	binding result (Redβ K132A; label: 5'-Cy3)	binding result (Redβ K111A; label: 5'-Cy3)	binding result (Redβ K154A; label: 5'-Cy3)	binding result (Redβ K148A; label: 5'-Cy3)
B1	binds	no binding	no binding	no binding	no binding	no binding	no binding	–	–	–	–	–	–	–
B2	–	–	–	–	–	–	–	binds	no binding	no binding	no binding	no binding	no binding	no binding
